Experimental findings from publication PMC3944813 are described below.

The target in this assay is NadRh from M. tuberculosis (NadR homolog) (M. tuberculosis). Nature of the assay: SEC.

For orientation: stoichiometry N means the number of molecules, sites or subunits per partner or assembly. In turn, “NadRh from M. tuberculosis (NadR homolog) (natural protein)” had a stoichiometry N of 2.
